Reference: paper PMC6121587, “In Vitro Inhibitory Mechanism Effect of TRAIP on the Function of TRAF2 Revealed by Characterization of Interaction Domains” (International Journal of Molecular Sciences, 2018)
Values joined by “and” are separate entries in the source; they are usually repeats but may differ in a detail not shown here. Equal entries are not always repeated. Each block holds one molecule with its values, some of them ahead of it.

B3: TRAIP RING domain plus coiled-coil domain (TRAIP RING-CC, residues 1-157) (domain or fragment, human, UniProt Q9BWF2 1-157, looked up)
chain: MPIRALCTICSDFFDHSRDVAAIHCGHTFHLQCLIQWFETAPSRTCPQCRIQVGKRTIINKLFFDLAQEEENVLDAEFLKNELDNVRAQLSQKDKEKRDSQVIIDTLRDTLEERNATVVSLQQALGKAEMLCSTLKKQMKYLEQQQDETKQAQEEAR
notes: Exists in different forms and higher-order oligomers; calculated monomer mass with the tag 18,893 Da; not shown: His6, C-terminal, kept

What was measured:
[1] = target: TRAF4 TRAF domain (TRAF-N and TRAF-C) (human); assay: SEC; single purified protein on Superdex 200 10/30, 20 mM Tris-HCl pH 8.0, 150 mM NaCl
[2] = target: TRAF2 TRAF domain (TRAF-N and TRAF-C) (human); assay: as above
[3] = target: B3; assay: native gel or EMSA; Native PAGE shift assay of mixtures of two purified proteins, Phast System, 8-25% gradient gel, Coomassie; details: both partners purified
[4] = target: the molecule itself; assay: AUC; sedimentation velocity, 20 °C, 2 mg/mL, 20 mM Tris-HCl pH 8.0, 150 mM NaCl, 45,000 rpm, 280 nm, SEDFIT c(s); the paper calls the TRAIP CC concentration low
[5] = target: the molecule itself; assay: SEC + SEC-MALS; TRAIP CC alone, high concentration; Superdex 200 10/30; MALS on mini-DAWN treos
[6] = target: the molecule itself; assay: SEC; single purified protein on Superdex 200 10/30, 20 mM Tris-HCl pH 8.0, 150 mM NaCl

stoichiometry N [1]: 3
Molecule: TRAF4 TRAF domain (TRAF-N and TRAF-C) (domain or fragment)

stoichiometry N [2]: 3
Molecule: TRAF2 TRAF domain (TRAF-N and TRAF-C) (domain or fragment)

binding result [3]: binds
B1: TRAF2 TRAF-N coiled-coil domain (amino acids 264-329) (domain or fragment, human, UniProt Q12933 264-329, looked up)
chain: AGSELLQRCESLEKKTATFENIVCVLNREVERVAMTAEACSRQHRLDQDKIEALSSKVQQLERSIG
notes: TNF receptor-associated factor 2 (TRAF2), human, TRAF-N coiled-coil domain, amino acids 264-329; Trimer by SEC; dimer and possible trimer by AUC. 'Human' is said of the TRAF2 TRAF domain in the same methods paragraph, not of this construct itself; also called TRAF2 TRAF-N CC; TRAF2 CC
stoichiometry N [4]: 2 and 3

Further lines, the molecule ahead of its results:

B2: TRAIP coiled-coil domain (TRAIP CC, residues 72-167) (domain or fragment, human, UniProt Q9BWF2 72-167, looked up)
chain: NVLDAEFLKNELDNVRAQLSQKDKEKRDSQVIIDTLRDTLEERNATVVSLQQALGKAEMLCSTLKKQMKYLEQQQDETKQAQEEARRLRSKMKTME
notes: Trimer by SEC and MALS at high concentration, dimer by AUC at low concentration; calculated monomer mass with the tag 12,425 Da; not shown: His6, C-terminal, kept
stoichiometry N [5]: 3 | stoichiometry N [4]: 2

Molecule: B3
binding result [6]: binds

B4: TRAF1 TRAF-N coiled-coil domain (amino acids 181-244) (domain or fragment, UniProt Q13077 181-244, looked up)
chain: FMKEKLLAELEGKLRVFENIVAVLNKEVEASHLALATSIHQSQLDRERILSLEQRVVELQQTLA
notes: TNF receptor-associated factor 1 (TRAF1), TRAF-N coiled-coil domain, amino acids 181-244; also called TRAF1 TRAF-N CC
stoichiometry N [6]: 3
